Experimental findings from PMC8225110, “The Divergent Key Residues of Two Agrobacterium fabrum (tumefaciens) CheY Paralogs Play a Key Role in Distinguishing Their Functions” (Microorganisms, 2021) are described below.

This assay has as its target T1, GST-FliM fusion protein (Agrobacterium fabrum C58, UniProt Q44457 1-321).
T1 construct: Flagellar motor switch protein FliM (atu0561) of Agrobacterium fabrum C58; Cloned in pGEX-4T-1; not shown: GST, N-terminal, kept
T1 sequence (looked up): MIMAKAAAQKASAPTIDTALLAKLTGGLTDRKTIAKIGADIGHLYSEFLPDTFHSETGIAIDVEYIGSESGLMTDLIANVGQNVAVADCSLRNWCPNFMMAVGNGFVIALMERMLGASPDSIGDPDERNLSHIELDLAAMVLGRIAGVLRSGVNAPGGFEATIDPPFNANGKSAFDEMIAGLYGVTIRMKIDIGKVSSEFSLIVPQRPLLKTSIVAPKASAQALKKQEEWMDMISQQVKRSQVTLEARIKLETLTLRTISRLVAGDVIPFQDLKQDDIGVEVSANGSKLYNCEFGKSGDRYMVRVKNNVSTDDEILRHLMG
Description: pull-down; GST-FliM on glutathione-Sepharose 4B beads, crude extract of CheY-6×his in PBS with MgCl2 and acetyl phosphate (phosphorylating conditions), 4 °C, 1 h; Western blot with anti-6×his antibody. The following applies: one partner purified.

B1: CheY2-6×his fusion protein, phosphorylated with acetyl phosphate (natural protein, Agrobacterium fabrum C58, UniProt Q7D1A5 1-129, looked up)
chain: MSLAEKIKVLIVDDQVTSRLLLSDALTQLGFKQITSAGDGEQGLKIMEQQPHHLVISDFNMPKMDGLGFLHAVRANPTTKKAAFIILTAQGDRALVQKAAQLGANNVLAKPFTIDKMRAAIEAVFGSLK
modifications: phosphorylated by acetyl phosphate (residue not given)
notes: Chemotaxis response regulator CheY2 (atu0520) of Agrobacterium fabrum C58; Same construct as m11; the extent of phosphorylation was not measured; also called CheY2-P; source: E. coli BL21 (DE3), crude extract, with acetyl phosphate (phosphorylating conditions); not shown: His6, C-terminal, kept
B1: the “fold band intensity pulled down, against CheY1-6×his” value is ~5 fold.
